# According to patent US11492376B2, “Toxoplasma gondii GRA8-derived recombinant peptides and composition for preventing or treating cancer comprising the same” (Industry—University Cooperation Foundation Hanyang …, priority 2019, dated 2022):
# Experiments:
# BMDM = assay: MTT assay of cell viability, bone marrow-derived macrophages (BMDM); format: cell-based, mouse; conditions: 20 μg/ml
# Description: FIGS. 2A, 2B, 2C, 2D and 2E show the design and expression of an ATRAM-conjugated multifunctional GRA8 peptide (rATRAM-G8-M/AS)-based protein [(A) Subcellular fractionation of 293T cells was performed by expression of GST-GRA8 WT or incubation of WT rGRA8 with (1 μg/ml) BMDM and treatment with several Tat-GRA8 peptides for 6 hours (10 μM). Mitochondrial and cytosolic fractions were fractionated and analyzed for expression of GST by IB. The purity of the fractions was confirmed by blotting for VDAC (mitochondrial protein) and actin (cytosolic protein). (B) A mammalian GST-GRA8 construct was transfected into 293T cells for 12 hours with V5-ATP5A1 or Flag-SIRT3, and treated with several Tat-GRA8 peptides (10 μM) for 6 hours. The 293T cells were used for GST pulldown, followed by IB with αV5 or αFlag. WCL was used for IB with αGST, αV5, αFlag or αActin. […] (D) 6×His-rATRAM-GRA8-M/AS purified with bacteria and its mutants were analyzed by Coomassie blue staining (left) or αHis immunoblotting (IB; right). (E) BMDM was incubated with rATRAM-GRA8-M/AS and its mutant (20 μg/ml) for indicated times, and cell viability was then measured by an MMT assay. […]
# As described in Non-Patent Document 1, the cell viability for a non-treated group was measured by an MTT assay. […] Using a UV/VIS spectrophotometer, each well of a plate was measured at 540 nm to measure relative cell viability.
# HCT116 cells = assay: Mitochondrial DNA quantification by real-time PCR; format: cell-based, human; conditions: 1 day, via SIRT3 and PKCα
# Description: FIGS. 4A, 4B, 4C, 4D and 4E show HCT116 cell death by rATRAM-GRA8-M/AS-induced mitochondrial activation [(A and B) HCT116 cells were incubated with WT rGRA8 or rATRAM-GRA8-M/AS and its mutants for indicated times, and then cell viability was measured with an MTT assay. […] The cells were stimulated with rATRAM-GRA8-M/AS for 1 day and subjected to enzymatic activity of OXPHOS V, and (C) MitoTracker fluorescence signals were assessed by flow cytometry. (D) A bar graph indicates a mitochondrial mass (MFI), and (E) the mtDNA content of BMDM was measured by quantitative real-time PCR. The mtDNA content was normalized by nuclear DNA. Significant differences were determined by comparison with control treatment (** P<0.01; *** P<0.001). Data represents five independent experiments with similar results].
# To quantify the copy number of mitochondrial DNA (mtDNA), by the method described in Autophagy. 2014; 10:785-802: The AMPK-PPARGC1A pathway is required for antimicrobial host defense through activation of autophagy, an mtDNA to nuclear DNA (nDNA) ratio was measured. Pyruvate kinase (Pklr) was used as a marker for nDNA and NADH dehydrogenase subunit 1 (mt-Nd1) was used as a marker for mtDNA. A real-time PCR reaction was performed according to the manufacturer's instructions (QuantiFast SYBR green PCR master mix; Qiagen, 204052), and temperature cycling was performed in QuantStudio™ 3 (ABI). […]
# HCT116 xenografts = assay: HCT116 xenograft mouse model, antitumor activity; format: in vivo, nude mouse
# [1] = Serum cytokine response in tumor-bearing mice
# Description: Immunoblotting was performed with anti-PKCα, anti-ATP5A1, anti-SIRT3 or anti-actin. […] (B) The schematic diagram of a xenograft model treated with rVector (upper). HCT116-expressing ATP5A1 WT and mutant cells were subcutaneously injected into the flank of nude mice. […] Each group included 10 mice. […] (C) Humoral immune responses in BALB/C mice. The mice were immunized via each route (intravenous injection or intraperitoneal injection) every third day, and subjected to blood collection on day 40. […] The values are expressed as mean±standard deviation for absorbance (OD) at 450 nm. Each group included five mice. (D) Cytokine response for rATRAM-GRA8-M/AS in tumor-bearing mice. As described in the method section, HCT116 cells were subcutaneously injected into the flank of a BALB/c mouse. A serum cytokine level was measured on day 30 after administration. Each group included 10 mice.
# Since immunogenicity is closely related with safety and efficacy, it is one of the critical factors for development of therapeutic proteins. Therefore, by monitoring the production of antibodies against rATRAM-GRA8-M/AS in immunized mice, the immunogenicity of rATRAM-GRA8-M/AS was investigated. After three consecutive injections of rATRAM-GRA8-M/AS, a level of IgG antibody was analyzed using enzyme-linked immunosorbent assay (ELISA).
# [2] = BALB/c mice, versus negative control
molecule,measurement,setting,value
"(GLAGLAGLLGLEGLLGLPLGLLEGLWLGLELEGN)2-GG-ATATTTTTTR-GG-YRFTVQTTQN (protein, His tag; rATRAM-G8-M/AS) GLAGLAGLLGLEGLLGLPLGLLEGLWLGLELEGNGLAGLAGLLGLEGLLGLPLGLLEGLWLGLELEGNGGATATTTTTTRGGYRFTVQTTQN",cytotoxicity in macrophages compared with vector control,BMDM,No significant cytotoxic differences
same,mitochondrial DNA content,HCT116 cells,enhanced
same,growth of tumors which started to initially grow,"HCT116 xenografts; 20 μg/kg, intraperitoneal injection (FIG. 6A)",inhibited the growth of tumors
same,growth of actively growing tumors,"HCT116 xenografts; 20 μg/kg, intraperitoneal injection (FIG. 6B)",inhibited the growth
same,fold improvement of IC50 compared with rGRA8 (anti-tumor activity),HCT116 xenografts; HCT116 xenograft,500 fold
same,IC50 (antitumor activity in xenograft),"HCT116 xenografts; HCT116 xenograft mice, intraperitoneal",20 µg/kg
same,tumor size and tumor growth,"HCT116 xenografts; HCT116 xenograft, effect dependent on PKCα, SIRT3, ATP5A1 and acetylation state of K506 and K531",a decrease in tumor size and delayed tumor growth
same,fold improvement of IC50 compared with rGRA8 (anti-tumor activity),"HCT116 xenografts; HCT116 xenograft, listed as rATRAM-G8-M/AS",approximately 500 fold
same,serum IL-1β level,[1]; [2],almost similar to that of the negative control
same,serum IL-6 level,[1]; [2],almost similar to that of the negative control
same,serum TNF-α level,[1]; [2],almost similar to that of the negative control
same,production of inflammatory cytokines,"[1]; tumor-bearing mice, serum, day 30",negligible
